T1: HLA-A2402 molecule on T2-A24 cells (human, UniProt P04439-2 25-302 at identity 0.92))
T1 construct: whole, on cells; Cell-surface HLA-A2402 of T2-A24 transfectants; also called HLA-A24 molecules
T1 MHC heavy: not shown


Molecular target: T1, HLA-A2402 molecule on T2-A24 cells
Test: MHC stabilization assay, T2-A24 cells with 10 µM peptide, anti-HLA-A2402 mAb staining, flow cytometry
Description: To be specific, each peptide with a concentration of 10 μM was incubated at 26° C. for 16 hours in a 200 μL RPMI1640 culture medium containing T2-A24 cells (2×10⁵ cells), 0.1% FCS, and 5×10⁻⁵ M β-mercaptoethanol, followed by a further incubation at 37° C. for 3 hours. After incubation, cell-surface HLA-A2402 molecules were stained with an anti-HLA-A2402 monoclonal antibody and the FITC-labeled antibody of (3) above. The expression level was determined by FACSCalibur and the mean fluorescence intensity (MFI) was recorded.

Row | Binder | % MFI increase
1 | NYKLAVNCF (Synthetic peptide) [Ep31 (Ep-CAM 31-39 peptide NYKLAVNCF)] | 85%
2 | LYENNVITI (Synthetic peptide) [Ep185 (Ep-CAM 185-193 peptide LYENNVITI)] | 79%
3 | LFHSKKMDL (Synthetic peptide) [Ep225 (Ep-CAM 225-233 peptide LFHSKKMDL)] | 29%
4 | YYVDEKAPEF (Synthetic peptide) [Ep250 (Ep-CAM 250-259 peptide YYVDEKAPEF)] | 57%
5 | KYEKAEIKEM (Synthetic peptide) [Ep296 (Ep-CAM 296-305 peptide KYEKAEIKEM)] | 24%
6 | EMGEMHREL (Synthetic peptide) [Ep304 (Ep-CAM 304-312 peptide EMGEMHREL)] | 16%
